Reference: patent US20180230200A1 (CITY OF HOPE, published 2018)

How the values were obtained:
[1] = molecular target: gH of HCMV strain TB40/E (human cytomegalovirus strain TB40/E); assay: cell-based or functional assay
[2] = molecular target: T1, gH/gL/UL128/UL130/UL131A pentamer complex expressed from MVA-PC in BHK-21 cells (human cytomegalovirus, UniProt P12824 24-743; P16832 31-278; P16837 28-171; P16772 1-214; F5HET4 19-129); assay: FC competition, MVA-PC BHK-21; unlabelled row Ab; competitor: biotinylated 2-80; further: test concentration or dose not given here
T1 construct: whole, on cells

[3] = molecular target: T1, gH/gL/UL128/UL130/UL131A pentamer …; assay: FC competition, MVA-PC BHK-21; unlabelled row Ab; competitor: biotinylated 21F6
[4] = molecular target: T1, gH/gL/UL128/UL130/UL131A pentamer …; assay: FC competition, MVA-PC BHK-21; unlabelled row Ab; competitor: biotinylated 54E11
[5] = molecular target: T1, gH/gL/UL128/UL130/UL131A pentamer …; assay: FC competition, MVA-PC BHK-21; unlabelled row Ab; competitor: biotinylated 62-11; further: test concentration or dose not given here

B1: 18F10 (antibody, V domains shown)
VH: QVTLKESGPGILQPSQTLSLTCSFSGFSLSTYGIGIGWIRQPSGKGLEWLAHIWWNDNKNYNTALKSRLTISKDPSNNQVFLKIASVDTADTATYFCARTGYFDVWGAGTTVTVSS
VL: DVVLTQTPLSLPVSLGDQVSISCSSSQSLVHSNGNTYIHWYLQKPGQSPKLLIYTVSNRFSGVPDRFSGSGSGTDFTLKISRVEAEDLGLYFCSQSTHVPYTFGGGTKLEIK
notes: also called NAb 18F10
IC50, inhibition of TB40/E cell-to-cell spread in ARPE-19 [1]: 95 µg/mL | IC50, neutralization of TB40/E infection of ARPE-19 [1]: 0.763 µg/mL | IC50, neutralization of TB40/E infection of CTB [1]: 8.8 µg/mL | IC50, neutralization of TB40/E infection of HUVEC [1]: 1.49 µg/mL | IC50, neutralization of TB40/E infection of MRC-5 [1]: > 25 µg/mL | Binding Inhibition (%) [2]: 0% | Binding Inhibition (%) [3]: 0% | Binding Inhibition (%) [4]: 0% | Binding Inhibition (%) [5]: 0%
